# B1: INTS3 (parent)
# chain: YPPLEGHVRQGVFSSLNHIVEKRV
# Variants of: B1
# Assay: protein stability index of a GFP-peptide fusion (GPS, HEK-293T) (PSI 1-6); higher = more stable
# Settings: c terminus: a fixed tail appended
# 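Also: lentivirally expressed fusions sorted by FACS into six bins by GFP to DsRed ratio, PSI derived from sequencing read proportions per bin multiplied by bin number.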
row,Variant,protein stability index
1,YPPLAGHVRQGVFSSLNHIVEKRV,2.52
2,YPPLNGHVRQGVFSSLNHIVEKRV,2.05
3,YPPLQGHVRQGVFSSLNHIVEKRV,2.02
4,YPPLTGHVRQGVFSSLNHIVEKRV,1.96
5,YPPLYGHVRQGVFSSLNHIVEKRV,1.87
6,YPPLVGHVRQGVFSSLNHIVEKRV,1.49
7,YPPLDGHVRQGVFSSLNHIVEKRV,3.54
8,YPPLWGHVRQGVFSSLNHIVEKRV,1.9
9,YPPLMGHVRQGVFSSLNHIVEKRV,2.24
10,YPPLSGHVRQGVFSSLNHIVEKRV,1.84
11,YPPLFGHVRQGVFSSLNHIVEKRV,1.66
12,YPPLCGHVRQGVFSSLNHIVEKRV,2.08
13,YPPLEGHVRQGVFSGLNHIVEKRV,2.58
14,YPPLEGHVRQGVFSLLNHIVEKRV,1.86
15,YPPLEGHVRQGVFSDLNHIVEKRV,2.95
16,YPPLEGHVRQGVFSKLNHIVEKRV,2.31
17,YPPLEGHVRQGVFSVLNHIVEKRV,2.92
18,YPPLEGHVRQGVFSRLNHIVEKRV,2.12
19,YPPNEGHVRQGVFSSLNHIVEKRV,2.19
20,YPPDEGHVRQGVFSSLNHIVEKRV,2.46
21,YPPYEGHVRQGVFSSLNHIVEKRV,1.83
22,YPPMEGHVRQGVFSSLNHIVEKRV,2.45
23,YPPCEGHVRQGVFSSLNHIVEKRV,2.21
24,YPPAEGHVRQGVFSSLNHIVEKRV,2.7

row,Variant,protein stability index
1,YPPSEGHVRQGVFSSLNHIVEKRV,2.58
2,YPPTEGHVRQGVFSSLNHIVEKRV,1.79
3,YPPLEGHVFQGVFSSLNHIVEKRV,2.09
4,YPPLEGHVEQGVFSSLNHIVEKRV,3.52
5,YPPLEGHVPQGVFSSLNHIVEKRV,2.77
6,YPPLEGHVDQGVFSSLNHIVEKRV,3.42
7,YPPLEGHVSQGVFSSLNHIVEKRV,2.51
8,YPPLEGHVYQGVFSSLNHIVEKRV,1.92
9,YPPLEGHVRQGVFSSQNHIVEKRV,3.01
10,YPPLEGHVRQGVFSSYNHIVEKRV,2.22
11,YPPLEGHVRQGVFSSPNHIVEKRV,2.93
12,YPPLEGHVRQGVFSSFNHIVEKRV,2.14
13,YPPLEGHVRQGVFSSGNHIVEKRV,3.18
14,YPPLEGHVRQGVFSSNNHIVEKRV,3.3
15,YPPLEGHVRQGVFSSVNHIVEKRV,3.1
16,YPPLEGHVRQGVFSSENHIVEKRV,3.65
17,YPPLEGHVRQGVNSSLNHIVEKRV,3.46
18,YPPLEGHVRQGVDSSLNHIVEKRV,4.31
19,YPPLEGHVRQGVWSSLNHIVEKRV,2.4
20,YPPLEGHVRQGVMSSLNHIVEKRV,3.36
21,YPPLEGHVRQGVQSSLNHIVEKRV,3.16
22,YPPLEGHVRQGVASSLNHIVEKRV,3.55
23,YPPLEGHVRQGVCSSLNHIVEKRV,2.98
24,YPPLEGHVRQGVLSSLNHIVEKRV,3.77

row,Variant,protein stability index
1,YPPLEGHVRQGVVSSLNHIVEKRV,3.7
2,YPPLEGHVRQGVFSSLNHIVSKRV,2.05
3,YPPLEGHVRQGVFSSLNHIVQKRV,1.79
4,YPPLEGHVRQGVFSSLNHIVAKRV,2.23
5,YPPLEGHVRQGVFSSLNHIVNKRV,2.21
6,YPPLEGHVRQGVFSSLNHIVYKRV,2.23
7,YPPLEGHVRQGVFSSLNHIVGKRV,2.68
8,YPPLEGHVRQGVFSSLNHIVMKRV,2.75
9,YPPLEGHVRQGHFSSLNHIVEKRV,2.53
10,YPPLEGHVRQGKFSSLNHIVEKRV,3.63
11,YPPLEGHVRQGTFSSLNHIVEKRV,3.27
12,YPPLEGHVRQGPFSSLNHIVEKRV,3.19
13,YPPLEGHVRQGAFSSLNHIVEKRV,2.58
14,YPPLEGHVRQGNFSSLNHIVEKRV,3.15
15,YPPLEGHVRQGEFSSLNHIVEKRV,3.46
16,YFPLEGHVRQGVFSSLNHIVEKRV,2.71
17,YKPLEGHVRQGVFSSLNHIVEKRV,2.49
18,YQPLEGHVRQGVFSSLNHIVEKRV,2.02
19,YNPLEGHVRQGVFSSLNHIVEKRV,1.82
20,YYPLEGHVRQGVFSSLNHIVEKRV,2.6
21,YGPLEGHVRQGVFSSLNHIVEKRV,2.85
22,YSPLEGHVRQGVFSSLNHIVEKRV,1.97
23,YIPLEGHVRQGVFSSLNHIVEKRV,1.55
24,YPPLEGHVRQGVFSSLNHVVEKRV,2.52

row,Variant,protein stability index
1,YPPLEGHVRQGVFSSLNHWVEKRV,3.41
2,YPPLEGHVRQGVFSSLNHGVEKRV,2.57
3,YPPLEGHVRQGVFSSLNHPVEKRV,2.47
4,YPPLEGHVRQGVFSSLNHAVEKRV,3.17
5,YPPLEGHVRPGVFSSLNHIVEKRV,2.3
6,YPPLEGHVRMGVFSSLNHIVEKRV,1.98
7,YPPLEGHVRAGVFSSLNHIVEKRV,2.19
8,YPPLEGHVRNGVFSSLNHIVEKRV,1.96
9,YPPLEGHVRTGVFSSLNHIVEKRV,1.83
10,YPPLEGHVRVGVFSSLNHIVEKRV,2.28
11,YPPLEGHVRIGVFSSLNHIVEKRV,1.62
12,YPPLEGHVRRGVFSSLNHIVEKRV,2.26
13,YPPLEGHVRQGVFSSLNHIVETRV,2.23
14,YPPLEGHVRQGVFSSLNHIVEGRV,1.92
15,YPPLEGHVRQGVFSSLNHIVENRV,2.46
16,YPPLEGHVRQGVFSSLNHIVEDRV,2.2
17,YPPLEGHVRQGVFSSLNHIVEFRV,3.12
18,YPPLEGHVRQGVFSSLNHIVEMRV,1.73
19,YPPLEGHVRQGVFSSLNHIVELRV,2.33
20,YPPLEGHVRQGVFSSLNHIVEKRM,2.06
21,YPPLEGHVRQGVFSSLNHIVEKRP,2.74
22,YPPLEGHVRQGVFSSLNHIVEKRK,2.4
23,YPPLEGHVRQGVFSSLNHIVEKRY,1.95
24,YPPLEGHVRQGVFSSLNHIVEKRQ,2.57

row,Variant,protein stability index
1,YPPLEGHVRQGVFSSLNHIVEKRL,2.78
2,YPPLEGHVRQGVFSSLNHIVEKRG,3.08
3,YPPLEGHVRQGVFSSLNHIVEKRE,3.32
4,YPPLEGHVRQGVFSSLNHIVEKRW,2.68
5,YPPLEGHVRQGVFSSLNHIVEKRN,2.83
6,YPPLEGHVRQGVFSSLNHIVEKEV,2.68
7,YPPLEGHVRQGVFSSLNHIVEKLV,1.98
8,YPPLEGHVRQGVFSSLNHIVEKQV,2.83
9,YPPLEGHVRQGVFSSLNHIVEKHV,2.4
10,YPPLEGHVRQGVFSSLNHIVEKGV,2.2
11,YPPLEGHVRQGVFSSLNHIVEKTV,2.53
12,YPPLEGHVRQGVFSSLNHIVEKFV,1.81
13,YPPLEGHVRQGVFSSLNHIVEKVV,1.85
14,YPPLEGHVRQGVFSSLNHIVEKIV,2.17
15,YPPLEGHVRQGVFSSLNHIVEKKV,2.7
16,YPYLEGHVRQGVFSSLNHIVEKRV,2.08
17,YPNLEGHVRQGVFSSLNHIVEKRV,2.04
18,YPMLEGHVRQGVFSSLNHIVEKRV,2.67
19,YPVLEGHVRQGVFSSLNHIVEKRV,2.65
20,YPQLEGHVRQGVFSSLNHIVEKRV,2.87
21,YPSLEGHVRQGVFSSLNHIVEKRV,3.19
22,YPWLEGHVRQGVFSSLNHIVEKRV,1.49
23,YPRLEGHVRQGVFSSLNHIVEKRV,2.63
24,YPTLEGHVRQGVFSSLNHIVEKRV,2.4

row,Variant,protein stability index
1,LPPLEGHVRQGVFSSLNHIVEKRV,3.53
2,FPPLEGHVRQGVFSSLNHIVEKRV,2.88
3,QPPLEGHVRQGVFSSLNHIVEKRV,3.48
4,KPPLEGHVRQGVFSSLNHIVEKRV,4.07
5,EPPLEGHVRQGVFSSLNHIVEKRV,3.96
6,DPPLEGHVRQGVFSSLNHIVEKRV,3.85
7,CPPLEGHVRQGVFSSLNHIVEKRV,3.94
8,TPPLEGHVRQGVFSSLNHIVEKRV,3.94
9,YPPLEGFVRQGVFSSLNHIVEKRV,2.42
10,YPPLEGDVRQGVFSSLNHIVEKRV,2.79
11,YPPLEGSVRQGVFSSLNHIVEKRV,2.97
12,YPPLEGNVRQGVFSSLNHIVEKRV,3.13
13,YPPLEGRVRQGVFSSLNHIVEKRV,2.22
14,YPPLEGYVRQGVFSSLNHIVEKRV,1.47
15,YPPLEGPVRQGVFSSLNHIVEKRV,2.01
16,YPPLEGVVRQGVFSSLNHIVEKRV,2.37
17,YPPLEGTVRQGVFSSLNHIVEKRV,2.56
18,YPPLEGKVRQGVFSSLNHIVEKRV,2.21
19,YPPLEGHVRQGVFYSLNHIVEKRV,1.66
20,YPPLEGHVRQGVFMSLNHIVEKRV,2.07
21,YPPLEGHVRQGVFTSLNHIVEKRV,2.56
22,YPPLEGHVRQGVFQSLNHIVEKRV,3.01
23,YPPLEGHVRQGVFCSLNHIVEKRV,1.5
24,YPPLEGHVRQGVFPSLNHIVEKRV,2.22

row,Variant,protein stability index
1,YPPLEGHVRQGVFDSLNHIVEKRV,3.52
2,YPPLEGHVRQGVFHSLNHIVEKRV,2.63
3,YPPLEGHVRQGVFSSLNRIVEKRV,3.42
4,YPPLEGHVRQGVFSSLNTIVEKRV,2.16
5,YPPLEGHVRQGVFSSLNWIVEKRV,1.39
6,YPPLEGHVRQGVFSSLNEIVEKRV,2.91
7,YPPLEGHVRQGVFSSLNAIVEKRV,1.86
8,YPPLEGHVRQGVFSSLNQIVEKRV,2.76
9,YPPLEGHVRQGVFSSLNMIVEKRV,3.03
10,YPPLEGHVRQGVFSSLNKIVEKRV,2.86
11,YPPLEGHVRQGVFSSLNYIVEKRV,1.83
12,YPPLEGHTRQGVFSSLNHIVEKRV,3
13,YPPLEGHRRQGVFSSLNHIVEKRV,2.75
14,YPPLEGHSRQGVFSSLNHIVEKRV,3
15,YPPLEGHDRQGVFSSLNHIVEKRV,3.25
16,YPPLEGHYRQGVFSSLNHIVEKRV,2.21
17,YPPLEGHMRQGVFSSLNHIVEKRV,2.46
18,YPPLEGHVRQGVFSSLKHIVEKRV,2.28
19,YPPLEGHVRQGVFSSLWHIVEKRV,2.26
20,YPPLEGHVRQGVFSSLDHIVEKRV,3.07
21,YPPLEGHVRQGVFSSLRHIVEKRV,2.44
22,YPPLEGHVRQGVFSSLGHIVEKRV,2.46
23,YPPLEGHVRQGVFSSLCHIVEKRV,1.86
24,YPPLEGHVRQYVFSSLNHIVEKRV,1.85

row,Variant,protein stability index
1,YPPLEGHVRQSVFSSLNHIVEKRV,2.54
2,YPPLEGHVRQPVFSSLNHIVEKRV,3.3
3,YPPLEGHVRQMVFSSLNHIVEKRV,1.79
4,YPPLEGHVRQVVFSSLNHIVEKRV,2.33
5,YPPLEGHVRQRVFSSLNHIVEKRV,2.18
6,YPPLEGHVRQIVFSSLNHIVEKRV,1.87
7,YPPLEQHVRQGVFSSLNHIVEKRV,2.74
8,YPPLENHVRQGVFSSLNHIVEKRV,2.86
9,YPPLEKHVRQGVFSSLNHIVEKRV,2.13
10,YPPLECHVRQGVFSSLNHIVEKRV,2.39
11,YPPLEWHVRQGVFSSLNHIVEKRV,2.65
12,YPPLETHVRQGVFSSLNHIVEKRV,3.99
13,YPPLEMHVRQGVFSSLNHIVEKRV,2.51
14,YPPLEHHVRQGVFSSLNHIVEKRV,2.98
15,YPPLEGHVRQGVFSSLNHIDEKRV,3.13
16,YPPLEGHVRQGVFSSLNHIKEKRV,2.43
17,YPPLEGHVRQGVFSSLNHIYEKRV,2.27
18,YPPLEGHVRQGVFSSLNHINEKRV,2.34
19,YPPLEGHVRQGVFSSLNHIPEKRV,2.64
20,YPPLEGHVRQGVFSSLNHIIEKRV,2.04
